# Patent US20100041597A1, “PEPTIDES TARGETED TO PROTEIN KINASE C ISOFORMS AND USES THEREOF” (priority 2005, published 2010)
# What was measured:
# PKC-δ = PKC-δ (Homo sapiens, UniProt Q05655); experiment: Competitive binding assay using cell extracts (Western blot); set-up: cytoplasmic extracts from different cell lines expressing appropriate PKC isoforms; endogenous in cells; host or cells: H661, MDAMB231, LS180, T24 (human, from ATCC); key to Affinity for PKC isoform δ: —: no detectable affinity; Low to very low affinity at 10X or 20X or both PRE concentrations in at least one cell line in the cell extract assay; Low affinity in purified isoform assay.; Moderate affinity at 10X or 20X or both PRE concentrations in at least one cell line in the cell extract assay.; High affinity at 10X or 20X or both PRE concentrations in at least one cell line in the cell extract assay; High affinity in purified isoform assay; conditions: for Affinity for PKC isoform δ: Cell extract, PRE at 10X, 20X antibody concentration, Table 20
# Chain of PKC-δ (Q05655 whole entry, canonical isoform): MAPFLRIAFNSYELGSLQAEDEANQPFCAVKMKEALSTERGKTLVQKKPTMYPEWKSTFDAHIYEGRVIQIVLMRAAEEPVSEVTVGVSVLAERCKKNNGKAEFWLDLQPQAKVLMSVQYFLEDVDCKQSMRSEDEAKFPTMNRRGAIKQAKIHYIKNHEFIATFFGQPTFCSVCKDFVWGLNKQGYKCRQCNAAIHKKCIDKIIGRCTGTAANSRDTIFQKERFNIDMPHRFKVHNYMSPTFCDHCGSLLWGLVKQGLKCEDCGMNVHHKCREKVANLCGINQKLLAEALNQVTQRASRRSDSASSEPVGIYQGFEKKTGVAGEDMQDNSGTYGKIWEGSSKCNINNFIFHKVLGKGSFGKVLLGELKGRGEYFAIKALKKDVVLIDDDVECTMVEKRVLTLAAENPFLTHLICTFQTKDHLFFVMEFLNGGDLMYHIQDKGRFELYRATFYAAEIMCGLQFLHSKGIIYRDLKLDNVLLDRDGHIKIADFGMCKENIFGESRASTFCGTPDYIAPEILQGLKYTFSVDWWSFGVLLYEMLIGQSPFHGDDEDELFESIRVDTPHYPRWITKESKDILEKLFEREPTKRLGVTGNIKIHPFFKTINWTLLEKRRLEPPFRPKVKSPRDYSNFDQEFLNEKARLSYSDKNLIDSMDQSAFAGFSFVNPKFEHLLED
# Description: Binding efficiency and specificity of the peptides PRE 2, 3, 4, 5, 6, 7, 8, 9, 10, 11, 12 and 13 (see Table 3) was also tested using cytoplasmic extracts from different cell lines expressing appropriate PKC isoforms as described for Example 1. Briefly, the protein cytoplasmic extracts were separated by electrophoresis and transferred onto nitrocellulose membranes by standard Western blotting procedures. The bands on the Western blots were detected with matching primary antibodies and alkaline phosphatase conjugated secondary antibody. The bands were then scanned and the relative density measurements obtained.
# This procedure to assess the binding characteristics of the PREs is based on competition binding of the PRE with the primary anti-isoform PKC specific antibodies. The lower the measured band density, the greater the binding of the PRE to the PKC isoform. The PREs were added at 10 and 20 times (10×, 20×) the primary antibody concentration, according to classical competition between antigenic peptide and primary antibody. The following cell lines (obtained from the ATCC) were used: H661—NCI human lung carcinoma NSCLC; MDAMB231—human highly invasive breast cancer cell line from pleural effusion; LS180—human colon adenocarcinoma; LnCAP—human prostate adenocarcinoma; CCD16Lu—human lung fibroblasts; Du145—human prostate carcinoma brain metastasis, and T24—human bladder carcinoma.
# In these cases, the 20× band density figures relative to control and 10× values were reliable.
# PKC-βI = PKC-βI (Homo sapiens, UniProt P05771); experiment: ELISA-based competitive binding assay with purified PKC isoform; set-up: key to Affinity for PKC isoform βI: —: no detectable affinity; Low to very low affinity at 10X or 20X or both PRE concentrations in at least one cell line in the cell extract assay; Low affinity in purified isoform assay.; Moderate affinity at 10X or 20X or both PRE concentrations in at least one cell line in the cell extract assay.; High affinity at 10X or 20X or both PRE concentrations in at least one cell line in the cell extract assay; High affinity in purified isoform assay; conditions: for Affinity for PKC isoform βI: Purified isoform, Table 20; for calculated binding capacity (100-% n) after subtraction of the DMSO apparent binding capacity / inhibition at 50 µM / inhibition at 100 µM / inhibition at 200 µM: purified PKC-βI; for targeting of PKC-βI: purified isoform, Tables 14-19; for inhibition at 50 µM / inhibition at 100 µM / inhibition at 200 µM: read-out: calculated binding capacity (100-% n) after subtraction of the DMSO apparent binding capacity
# Chain of PKC-βI (P05771 whole entry, canonical isoform): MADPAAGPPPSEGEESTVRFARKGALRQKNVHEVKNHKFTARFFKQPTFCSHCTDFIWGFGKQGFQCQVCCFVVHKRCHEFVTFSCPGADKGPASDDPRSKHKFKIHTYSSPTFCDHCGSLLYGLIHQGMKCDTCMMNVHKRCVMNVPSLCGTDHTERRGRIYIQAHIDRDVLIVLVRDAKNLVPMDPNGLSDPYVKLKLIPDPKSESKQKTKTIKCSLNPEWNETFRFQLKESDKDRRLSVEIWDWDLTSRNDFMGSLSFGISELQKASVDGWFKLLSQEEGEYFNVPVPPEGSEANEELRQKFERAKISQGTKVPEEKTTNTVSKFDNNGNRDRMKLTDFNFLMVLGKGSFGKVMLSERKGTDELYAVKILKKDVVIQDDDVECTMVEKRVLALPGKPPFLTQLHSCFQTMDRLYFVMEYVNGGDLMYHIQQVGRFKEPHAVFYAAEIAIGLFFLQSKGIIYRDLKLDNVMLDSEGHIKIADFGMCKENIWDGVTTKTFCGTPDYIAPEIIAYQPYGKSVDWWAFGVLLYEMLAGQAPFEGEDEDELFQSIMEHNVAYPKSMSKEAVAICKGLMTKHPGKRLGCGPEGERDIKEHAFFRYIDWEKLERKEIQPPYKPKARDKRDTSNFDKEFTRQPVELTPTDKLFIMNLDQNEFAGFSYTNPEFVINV
# Description: Peptides PRE 1, 2, 3, 4, 5, 6, 7, 8, 9, 10, 11, 12 and 13 (see Table 3) were tested for their ability to interfere with binding of PKC isoform-specific antibodies to their target PKC isoforms using a competitive binding assay and purified PKC isoforms.
# Procedure: Competitive binding was assessed using a 96 well plate ELISA-based assay as described below.
# Greiner 96 well ELISA plates were coated with the appropriate PKC isoform diluted in PBSN (PBS with Calcium/Magnesium+0.05% Sodium azide w/w). 50 μL/well at 250 ng/mL was used. Control wells contained PBSN only. Plates were incubated overnight at 4° C.
# The plates were washed 3 times with 200 μL of dH2O per well, then 100 μL of blocking solution was added per well and the plate incubated for 1 h at 37° C. The washing steps with dH2O were repeated and 50 μL of the appropriate PRE solution (PRE stock solution [20 mM in DMSO] diluted in PBSN) was added and the plate incubated for 1 h at room temperature.
# After incubation, 5 μL of 1.1:400 anti-PKC (isoform specific antibody) was added per well (to provide a final concentration of 1:4000). For PKC-epsilon, 1.1:800 dilution was used and for PKC-zeta a 1.1:100 dilution was used due to high and low binding affinity, respectively. The plates were then incubated 1 h at room temperature, followed by washing with dH2O as described above.
# 50 μL of 1:1000 dilution of Alkaline Phosphatase (AP) conjugated antibody (anti-rabbit for all except zeta, which was anti-goat) was then added and the plate incubated for 1 h at room temperature. Washing with dH2O was then repeated. Finally, 100 μL of pNPP solution in pNPP buffer (2 mM MgCl2, 100 mM Sodium bicarbonate in water, pH 9.8) was added to all wells and incubated for 8 minutes for α, βI, βII ε, and ζ, or for 15-20 mins for […] (until sufficient coloration is observed). The reaction was stopped by addition of Stop solution (2N NaOH) and the absorbance at 405 nm was read on a Galaxy Plate reader.
# Controls were PKC without PRE; blank controls, and controls containing the final concentrations of DMSO used for solubilizing the PREs. The non-specific binding capacity related to DMSO was also measured.
# The antibodies used were as follows: anti-PKC α (Cat. No. SC-208); anti-PKC βI (Cat. No. SC-209); anti-PKC βII (Cat. No. SC-210); anti-PKC δ (Cat. No. SC-213); anti-PKC ε (Cat. No. SC-214); anti-PKC ζ (Cat. No. SC-216-G) (all from Santa Cruz Biotechnology, Inc.). The AP-conjugated antibodies were obtained from Jackson Immuno Research Laboratories (West Grove, Pa.).
# Calculations: The OD values measured at 405 nm represent the free PKC coated per well.
# OD405 PKC alone−Blank OD405 of each sample=OD405 coated isoform
# (OD405 of sample X/OD405 coated isoform)×100=% n that represents the percentage of X binding compared to control.
# 100-% n measures the relative binding capacity of X towards the tested isoform.
# The apparent binding capacity of the DMSO samples was then subtracted from X binding capacity.
# All measurements were made in triplicate and the values in the table represent the averaged calculated binding capacity values after subtraction of the DMSO apparent binding capacity (averaged from 12 values, respectively 10.80, 11.20 and 16.40 corresponding to the concentrations of DMSO used to dilute the […] at 200, 100 and 50 μM respectively). The results allow for quantitative comparison of the binding capacity of each PRE towards an individual isoform within each table, but not among isoforms due to differences in sensitivity of the specific antibodies toward the secondary antibody. This applies particularly to PKC-delta. As noted above, the colour development duration was increased 2-3 times and, as a result, the OD405 measurements may be overestimated for this isoform.
Substance,Affinity for PKC isoform δ (PKC-δ),Affinity for PKC isoform βI (PKC-βI),calculated binding capacity (100-% n) after subtraction of the DMSO apparent binding capacity (PKC-βI; PRE 50 μM),calculated binding capacity (100-% n) after subtraction of the DMSO apparent binding capacity (PKC-βI; PRE 100 μM),targeting of PKC-βI (PKC-βI),affinity for PKC-δ (PKC-δ; cell extracts),inhibition at 50 µM (PKC-βI; PRE 50 μM) [%],inhibition at 100 µM (PKC-βI; PRE 100 μM) [%],inhibition at 200 µM (PKC-βI; PRE 200 μM) [%],calculated binding capacity (100-% n) after subtraction of the DMSO apparent binding capacity (PKC-βI; PRE 200 μM)
Ac-KDANQLIGISI-NH2 [PRE 6],M/H,L,,,,,,,,
RRKKGGKDFVVKR [PRE 1],—,H,,,targeted most strongly,,,,,
Ac-ISIGILQNADK-NH2 [PRE 7],L,—,,,,,,,,
"Ac-KDAQNLIGISI-NH2 [PRE 4, Ac-KDAQNLIGISI-NH2]",—,L,,,,none for PKC-6,6.02,15.7,7.46,
ILEDKGGDAQNLIGISI [PRE 8],L,—,,,,,,,,
Ac-AKGIQEVKGGKDAQNLIGISI-NH2 [PRE 5],—,—,,,,,0,0,0,
Ac-AKGIQEVKGGDAQNLIGISI-NH2 [PRE 3],H,H,,,targeted most strongly,,26,22.5,23,
Ac-isigilgnadk-NH2 [PRE 9],H,L,11.53,8.82,,,,,,5.72

# Next, values leading:
Affinity for PKC isoform δ (PKC-δ),Affinity for PKC isoform βI (PKC-βI),calculated binding capacity (100-% n) after subtraction of the DMSO apparent binding capacity (PKC-βI; PRE 50 μM),calculated binding capacity (100-% n) after subtraction of the DMSO apparent binding capacity (PKC-βI; PRE 100 μM),targeting of PKC-βI (PKC-βI),affinity for PKC-δ (PKC-δ; cell extracts),inhibition at 50 µM (PKC-βI; PRE 50 μM) [%],inhibition at 100 µM (PKC-βI; PRE 100 μM) [%],inhibition at 200 µM (PKC-βI; PRE 200 μM) [%],calculated binding capacity (100-% n) after subtraction of the DMSO apparent binding capacity (PKC-βI; PRE 200 μM),Substance
—,—,,,,,,,,,Ac-KDAQNLI-NH2 [PRE 12]
H,—,3.77,4.35,,,,,,,Ac-ISIGILNQADK-NH2 [PRE 10]
—,—,9.86,14.23,,,,,,12.5,Ac-RDAQNLIGISI-NH2 [PRE 11]
—,—,,,,,,,,,Ac-RDAQNLI-NH2 [PRE 13]
